This note sets out measurements from the DeepSol protein solubility set.

The nature of the data set: soluble on expression in E. coli; label from the status in PepcDB or PDB records.
For the sequence “MSKVPSDIEIAQAAKMKPVMELARGLGIQEDEVELYGKYKAKISLDVYRRLKDKPDGKLILVTAITPTPAGEGKTTTSVGLTDALARLGKRVMVCLREPSLGPSFGIKGGAAGGGYAQVVPMEDINLHFTGDIHAVTYAHNLLAAMVDNHLQQGNVLNIDPRTITWRRVIDLNDRALRNIVIGLGGKANGVPRETGFDISVASEVMACLCLASDLMDLKERFSRIVVGYTYDGKPVTAGDLEAQGSMALLMKDAIKPNLVQTLENTPAFIHGGPFANIAHGCNSIIATKTALKLADYVVTEAGFGADLGAEKFYDVKCRYAGFKPDATVIVATVRALKMHGGVPKSDLATENLEALREGFANLEKHIENIGKFGVPAVVAINAFPTDTEAELNLLYELCAKAGAEVALSWAKGGEGGLELARKVLQTLESRPSNFHVLYNLDLSIKDKIAKIATEIYGADGVNYTAEADKAIQRYESLGYGNLPVVMAKTQYSFSDDMTKLGRPRNFTITVREVRLSAGGRLIVPITGAIMTMPGLPKRPAACNIDIDADGVITGLF”, the “soluble on expression in E. coli” value is “soluble”. In the case of “CIHSLKSEAIFFERTANFDGNTREKIIAMHVGYRIYARMEPVLSTCAIVAKTPWVLEKASPERLNELNRLEEEVISGADALVNNAVECGDLKFSPAIGADAIVFANWSIAFGSNALAQNASNSRCIQRIQDPFSVLHNANMLLDGLGWAPLSTEWDYRKTWRRVEQELFSEEIAYLETVNR” it was “not soluble”.

For “MKQIKWWLLAVLLVVGLTGCGSQTTKKQATQQAASTKKISPYVNQQTPTFYVHGFQGSAKSTNTLIAHAEKTAHAHKVLVATVSTSGQVTLTGKWRGRVRNPIIQVVFKNNLAQYDQQSAWLAKVITTVQQQHAFKHYNIVAHSAGCVASVNMLMTQQTTTFPKINKLVTIAGPFDGVVGEDDVANQNSFLTSGQPKYLHAAYELLAAKRNNFPKNVQLLNIVGTLNDGSHSDSLVTNVSARSIKYLLRGRDVDYTEKDFYGAHAQHSQLHENAKVALAVDRFLWHR”, the “soluble on expression in E. coli” value was “not soluble”. The value for “MPIRFLHTADLHLDSPLRTFGDLARERRRDFLKTFDRIVNLAIKREVDCILIAGDLFDSTSVGAETVGRVQDAFSRLAGRGVQVVLIPGTHDNIISAESVYSRYQFTGVHILREPAVDEPLRLDIRGEAVFFYGFAYRSDRSREALESMRRRSGDGIHVGLLHGSLKGNPEWEMRKKDIPFSVADLVALDLDYIALGHYHDAACLEEGGRVIACYPGSPEGKKFGENGPRYALIVEVAPGNASVERVEVQTRIIREFNVDASLFAEPAALEAELARLGTSDTVGRIRLCGTVEEPLDTANLSGRVKGNFAWLELVDETDLYNSGHVKRMEREDSIRGLFIRKIHERYDAAGSDAERELCRDALRLVMGRFSRGGGN” was “not soluble”. In the case of “QTIKDFLAVAMKKWTAPFEPFQLIDNIYYVGTDGIAVYVIKTSQGLILMDTAMPQSTGMIKDNIAKLGFKVADIKLILNTHAHLDHTGGFAEIKKETGAQLVAGERDKPLLEGGYYPGDEKNEDLAFPAVKVDRAVKEGDRVTLGDTTLTAHATPGHSPGCTSWEMTVKDGKEDREVLFFCSGTVALNRLVGQPTYAGIVDDYRATFAKAKAMKIDVLLGPHPEVYGMQAKRAEMKDGAPNPFIKPGELVTYATSLSEDFDKQLAKQTAALEKK” it was “soluble”; in that of “MSLEPLAETYQALVLAVRDYVTKNGFHGAVLGLSGGIDSALTLAIAADAIGADKVQAVMMPFRYTAQMSVEDAKEQAERMGVEFNIISIEPMFEGFMAQLAPLFEGTARDTTEENLQARCRGVLLMALSNKRRCIVLTTGNKSEMAVGYATLYGDMAGGFDVLKDVPKTLVFKLCEYRNSVDYVIPQRVIDRPPSAELAPDQVDQDSLPPYDILDAILKRYVEEDASVADMVAEGFEEAVVRKVIRLVDLNEYKRRQAAVGPRITARNEGHHHHHH”, “not soluble”; in that of “MGSDKIHHHHHHMPKYLVFMDIDGTLLTDHQYVSERTRATIERFQKQDVLFYIATGRMYELAKIVRDKVNADVRLVTSNGAVFDGAQGRELTKLGGAAVELAYLIARRDNLPMMLFTPDMAYYTEQIPRFVARNAANFDADEVSIGYEEVKSFTQLATIEDQITNGVILSREDMSRLDSAREKLTNSKLLRLSSSNPNNIEMIPLNTDKGTAVKQIQREQHVDAAHTFVFGDGLNDVGMMAEADLSVAMGNALPQVKKVANYVTDMNYNDGLALFLEKYFAAHPLSTTK”, “not soluble”. For the sequence “MINIHRFVQNRFLRTRHAHPFGIVLDIDGVLFRGRNMLPRVKEAFSLITDKKGNFVVPTVFLTNGTNSTEKNKAAQLSEQLGFRVPADNVLMSHSPLRMFTDLHDKQVLVVGQKNARAIAKGIIFFRVGFKKVTTIDHLVKWFPHLDCTDFSRKLVDPKETEAARKRFRPIEAIVMLGEPLKWETSLQLMLDCVLTYGKMDTMVFPLIAGGRRPDHIPIVACNVDLVWMADVASQLPRIGHGTFIHILDSLYEKLTGQHLQFRATLGKPTEVSYLHAAHRIQRQAKAMKLEDVKYVYVIGDNPMSDVLGARLFDRYLRHGGVGRFDHLDLEAFDVNDGEKPRVRTRNVVERCISILVETGVHQDHVHINGMVKPISALIDNLSKGEQLKLQLPDFVEYDLHAAIRTILRRECYR”, the “soluble on expression in E. coli” value is “not soluble”. The value for “MQLPLSYWIESTQFPTFPRLSENIKTKVAIIGAGITGITTAYLLAKEGIDVVLIDSGRILNGTTGHTTAKVTAQHDLIYDELINHFGVEKARLYYESNNQALQFINKTVQTYKIDCNFSNEDSYLYTTTDNGLRNLSKEYEAYQKLNIPCDYVQSLSIPIPVQSALVMKNQAQFHPLLYLKTLLEKFVEMGGKVYEQTTAMDVEKGDYSQIITKEGHHITCEYVVSCSHFPFYDANSFFFTRMYAERSYALAIKAKTEYPGGMYLSIDDPKRSLRYITNNGEKLILIGGESHKTGQGINTMLHYEALYSFAEATFGIDEVSYRWSAQDLITLDKLPYIGHINERNPNIFVATGYRKWGMTTGTAAAHLLKDSILKVHSPYKELYAPSRFHANPDIKTFLSQNIDVAKHLIAGLEHHHHHH” was “not soluble”. In the case of “MGCVSSKSTTVLSPQTSFNEASRTSFRALPGPSQRQLEVYDQCLIGAARWPDDSSKSNTPENRAYCQSMYNSIRSAGDEISRGGITSFEELWGRATEWRLSKLQRGEPLYSAFASERTSDTDAVTPLVKPYKSVLARVVDHEDAHDEIMQDNLFGDLNVKVYRQTAYLHGNVIPLNTFRVATDTEYLRDRVAHLRTELGAKALKQHLQRYNPDRIDHTNASYLPIIKDHLNDLYRQAISSDLSQAELISLIARTHWWAASAMPDQRGSAAKAEFAARAIASAHGIELPPFRNGNVSDIEAMLSGEEEFVEKYRSLLDSDCFGTGHHHHHH” it was “soluble”. The value for “MGSDKIHHHHHHMMKKKWYIVLTMSGYEEKVKENIEKKVEATGIKNLVGRIVIPEEVVLDATSPSERLILSPKAKLHVNNGKDVNKGDLIAEEPPIYARRSGVIVDVKNVRKIVVETIDRKYTKTYYIPESAGIEPGLRVGTKVKQGLPLSKNEEYICELDGKIVEIERMKKVVVQTPDGEQDVYYIPLDVFDRDRIKKGKEVKQGEMLAEARKFFAKVSGRVEVVDYSTRKEIRIYKTKRRKLFPGYVFVEMIMNDEAYNFVRSVPYVMGFVSSGGQPVPVKDREMRPILRLAGLEEYEEKKKPVKVELGFKVGDMVKIISGPFEDFAGVIKEIDPERQELKVNVTIFGRETPVVLHVSEVEKIE” was “not soluble”; that for “AIARENEAVKPTIQAVYLAAGLSSRFGGRIKCLQEVGRHGETLLELSVRQLCEAYPAISSLVFVVSEATHLPIHALIGEQFYGLPVYFCVQRVPAWRKRPLGTVDALLAAREHIHGPFIVLNGDSLYGVAALSLVCNHITAAKTACMPGYKLREVLPKEGRVNRAIVQTDERHRVLEIVEQYNIGFEDIEEGRYTGDELTSMNVFGFHDTSIFARADERFRRFLSELEALRDDHHLQQQQQSVKRCSTDENDVYAHKEYILSTMLNELLHDAQIELMVLSCNSIRTPLELTNPGDFAFVKNHLDLVGL” was “soluble”. Turning to “MGSDKIHHHHHHMIFINSRFLTQDVSGVQRYAEQMCRALQRLRNDLIFVAPRNIRLHDCAKALDVQHIGHATGHLWEQVDLPLHLKRKGNPLLVSISNTGPMFYANQIATHHDINYVRYPQSYTRLFRLAYRTITPILLSRARTLITGSSFSRGEIASFYGYAEDKVLVLPAAVSDDFTPRAVHRDQPDYLLAVSSPAAHKNFNRMIQAFLSLRGHADLQLHIVGAASSLFADPNLQRLACRDPRIRFLGRLSDAELIEQYQGASAFVFPSLYEGFGIPPLEAQACGCPVLAANAASIPEVLQASALYFDPLDVSHMAAAMHRVLSDAPLRQALRRQGLKNVQRFSWEISAQRLSQRIDALLEPAVQGKHHVAPESSPGKP”, the “soluble on expression in E. coli” value was “not soluble”. Turning to “MRTMVFPGSAPAYPIRYPSTMQETDSGAGPRTLRRGLMVLAALRDQGPRGLSVTDIARQTGIQRPTIYRLLAALLDAGLVVPLQGTKKYRTQLAADADLAAPDPRVRQMLPVLRRLADRTGDAVFLVVRDGDDSVSLHREIGSYPVQILATYAGKRQPLGVGSGGMALLAALPDEIAHAIVQRNSGRLDEYGGMTPQEMHRLIENTRARGYSVVGNHAVRGALGVGCALLDAQGAPVLAVSVTAIIDRMPAQRQREIAGWIGAELARLAPKA”, the “soluble on expression in E. coli” value was “not soluble”. The value for “MGVPFIRFLNITFDRRGDELTGVLNFDDKLIGNPFLPAIHGGVTAAFLEVTAVITLSWAHLFERIESGDLAPEDILTDENMRFPKTIDFTIDYLRSGLPRDAYARAYISRAGRRYASVRVEAWQDHHDKLYAQGTGHFLMPLEHHHHHH” was “soluble”; that for “MNRLPVDDVIPDLLTALEQRNAAVLQAPPGAGKTTRVPLALLDAPWLNGKRIIMLEPRRLAATNAARWMARSLGEEAGATVGYAIRFDRRVSARTRVEVVTEGILTRRLQSDPLLEGVGAVIFDEFHERSIHSDLALALCRDVQAGLREDLRIIVMSA” was “not soluble”. The value for “MSLASYLDFEKNIQQIDEDIINAQIKGDTEAVSILKKNLEKEISKTYKNLSDFQRLQLARHPDRPYALDYIELILNDAHEIHGDRAFRDDPAIVCFMGYLGEKKIIVIGEQKGRGTKDKIARNFGMPHPEGYRKALRVAGLAEKFQIPILFLIDTPGAYPGIGAEERGQSEAIARNLYELSDLKIPTIAIVIGEGGSGGALAIGVADKLAMMKNSVFSVISPEGCAAILWNDPAKSEAATKAMKVTADDLKSQGLIDDVIDEPTNGAHRNKEAAAVAIADYVKKSLNELENIDVRELSANRMQKILKLGAYQEAEGHHHHHH” was “soluble”; that for “MLQCYNCPNPTADCKTAVNCSSDFDACLITKAGLQVYNKCWKFEHCNFNDVTTRLRENELTYYCCKKDLCNFNEQLENC” was “soluble”. In the case of “MLRKADIKDLNACLSLFEQSVKTLCAKDYTKDQICAWIKIDRQQWEEKFKYDEIFVYEKRGKIASFISVKQEQKLLDLLFTHPDFVRQGLAQNLLDFILKTYLHNEIYTFASLSAKDFFLKNGFELIRENKVIKEGQNLKKILMKKDVIYKN” it was “not soluble”; in that of “MSLIWKRKITLEALNAMGEGNMVGFLDIRFEHIGDDTLEATMPVDSRTKQPFGLLHGGASVVLAESIGSVAGYLCTEGEQKVVGLEINANHVRSAREGRVRGVCKPLHLGSRHQVWQIEIFDEKGRLCCSSRLTTAILEGGSHHHHHH”, “soluble”; in that of “MSEQKIEVVGKLGSTYGIRGWLRLYSSTEKAESIFDYQPWFLKIKGQWQLIELESWRYHSNDLIVKLKGTEDREAAQLLTNAEIGVDLSVFPKLGEEDYYWHDLINCQVVNLENYTMGVVTELMETGSNDVLVVRANSKDAFGKQERLIPFLYKQVVKRVDLSTKTITVDWDAGFLEHHHHHH”, “soluble”.
